Assay results from doi:10.1101/871707 (bioRxiv, 2019).

Molecular target: the molecule itself
Assay: cryo-EM structure

B1: human SEMA6A soluble recombinant extracellular domain (receptor)
chain: GFPEDSEPISISHGNYTKQYPVFVGHKPGRNTTQRHRLDIQMIMIMNGTLYIAARDHIYTVDIDTSHTEEIYCSKKLTWKSRQADVDTCRMKGKHKDECHNFIKVLLKKNDDALFVCGTNAFNPSCRNYKMDTLEPFGDEFSGMARCPYDAKHANVALFADGKLYSATVTDFLAIDAVIYRSLGESPTLRTVKHDSKWLKEPYFVQAVDYGDYIYFFFREIAVEYNTMGKVVFPRVAQVCKNDMGGSQRVLEKQWTSFLKARLNCSVPGDSHFYFNILQAVTDVIRINGRDVVLATFSTPYNSIPGSAVCAYDMLDIASVFTGRFKEQKSPDSTWTPVPDERVPKPRPGCCAGSSSLERYATSNEFPDDTLNFIKTHPLMDEAVPSIFNRPWFLRTMVRYRLTKIAVDTAAGPYQNHTVVFLGSEKGIILKFLARIGNSGFLNDSLFLEEMSVYNSEKCSYDGVEDKRIMGMQLDRASSSLYVAFSTCVIKVPLGRCERHGKCKKTCIASRDPYCGWIKEGGACSHLSPNSRLTFEQDIERGNTDGLGDCHNSFVALNGHSSSLLPSTTTSDSTAQEGYESRGGMLDWKHLLDSPDSTDPLGAVSSHNHQDKKGVIRESYLKGHDQLVPVT
notes: also called SEMA6A rECD; recombinant SEMA6A ectodomain
stoichiometry N: 2
